The results in this text go back to paper PMC9872726 (Nature cell biology, 2022).

In the experiment the target is HSPB1 wild-type (human, UniProt P04792 1-205). As to the kind of experiment: NMR titration.
Chain of HSPB1 wild-type (P04792 whole entry): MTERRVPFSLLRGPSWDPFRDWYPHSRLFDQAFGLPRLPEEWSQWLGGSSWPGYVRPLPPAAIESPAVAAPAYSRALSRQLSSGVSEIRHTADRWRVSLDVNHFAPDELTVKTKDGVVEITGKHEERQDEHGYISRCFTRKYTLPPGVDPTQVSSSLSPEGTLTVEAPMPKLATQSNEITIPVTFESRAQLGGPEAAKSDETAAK

B1: TDP-43 LCD (domain or fragment, UniProt Q13148 274-414, looked up)
chain: GRFGGNPGGFGNQGGFGNSRGGGAGLGNNQGSNMGGGMNFGAFSINPAMMAAAQAALQSSWGMMGMLASQQNQSGPSGNNQNQGNMQREPNQAFGSGNNSYSGSNSGAAIGWGSASNAGSGSGFNGGFGSSMDSKSSGWGM
Turning to B1, the binding result was “binds”.
